In article PMC3393751 one finds constitutive NADPH oxidase turnover (without arachidonic acid) of cytochrome b558 washed on the heparin matrix with the calcium loaded chimera instead of cytosol (control without washing 3.7 s^-1) data, which are given here for 1 substance.

The target in this experiment is cytochrome b558 (human (endogenous in neutrophils)) (UniProt P04839).
Sequence of UniProt P04839 (P04839 whole entry, chain 1 of 2): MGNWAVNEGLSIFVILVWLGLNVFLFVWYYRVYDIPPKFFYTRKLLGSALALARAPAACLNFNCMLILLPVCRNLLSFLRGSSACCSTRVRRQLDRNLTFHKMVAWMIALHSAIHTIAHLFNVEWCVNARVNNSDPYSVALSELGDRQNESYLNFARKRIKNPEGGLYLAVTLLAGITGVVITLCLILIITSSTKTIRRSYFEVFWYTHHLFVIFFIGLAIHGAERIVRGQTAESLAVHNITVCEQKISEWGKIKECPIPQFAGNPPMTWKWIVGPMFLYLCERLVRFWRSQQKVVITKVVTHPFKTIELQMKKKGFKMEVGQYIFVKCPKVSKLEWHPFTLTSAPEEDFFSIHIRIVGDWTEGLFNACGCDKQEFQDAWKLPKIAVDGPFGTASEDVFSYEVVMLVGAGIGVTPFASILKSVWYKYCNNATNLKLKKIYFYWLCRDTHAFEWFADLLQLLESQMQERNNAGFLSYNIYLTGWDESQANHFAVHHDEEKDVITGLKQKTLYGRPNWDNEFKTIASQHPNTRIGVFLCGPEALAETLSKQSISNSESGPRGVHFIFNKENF
Sequence of UniProt P04839 (P13498 whole entry, chain 2 of 2, further chain): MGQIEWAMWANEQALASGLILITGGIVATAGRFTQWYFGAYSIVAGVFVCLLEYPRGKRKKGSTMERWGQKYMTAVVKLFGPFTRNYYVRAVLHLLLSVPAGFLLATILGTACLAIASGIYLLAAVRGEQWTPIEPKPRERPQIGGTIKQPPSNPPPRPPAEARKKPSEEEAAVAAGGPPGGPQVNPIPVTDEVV

As for “rS100A9-A8 chimera (full length) (from UniProt P05109 1-93)”, the constitutive NADPH oxidase turnover (without arachidonic acid) of cytochrome b558 washed on the heparin matrix with the calcium loaded chimera instead of cytosol (control without washing 3.7 s^-1) was 17 s⁻¹.
